Source: patent publication US20220204643A1 (published 2022)
One block for each binder: values may come before it.

Columns and labels:
[1] = target: T1, ankyrin repeat domain 53, transcript variant 2 (human)
T1 construct: HuProt array protein, full-length recombinant from yeast; also called ANKRD53
T1 chain: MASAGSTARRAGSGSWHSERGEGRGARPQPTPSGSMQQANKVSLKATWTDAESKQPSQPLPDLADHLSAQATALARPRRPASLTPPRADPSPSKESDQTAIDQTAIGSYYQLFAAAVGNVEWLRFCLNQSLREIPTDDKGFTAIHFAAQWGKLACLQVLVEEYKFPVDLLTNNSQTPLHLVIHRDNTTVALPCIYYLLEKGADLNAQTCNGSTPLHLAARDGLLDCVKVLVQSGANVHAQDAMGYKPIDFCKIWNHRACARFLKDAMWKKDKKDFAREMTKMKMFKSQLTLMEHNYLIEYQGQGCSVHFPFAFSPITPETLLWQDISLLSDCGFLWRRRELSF

[2] = target: T2, proliferating cell nuclear antigen, transcript variant 1 (human, UniProt P12004 1-261)
T2 construct: HuProt array protein, full-length recombinant from yeast; also called PCNA
T2 sequence (P12004 whole entry, change not shown): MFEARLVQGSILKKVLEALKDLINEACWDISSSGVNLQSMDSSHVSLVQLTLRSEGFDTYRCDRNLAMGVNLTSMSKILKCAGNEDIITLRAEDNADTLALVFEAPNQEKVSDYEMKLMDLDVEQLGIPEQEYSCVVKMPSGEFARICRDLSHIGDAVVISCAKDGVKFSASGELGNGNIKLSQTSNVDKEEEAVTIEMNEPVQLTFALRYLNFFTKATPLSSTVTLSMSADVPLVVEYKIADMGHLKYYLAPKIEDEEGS

[3] = target: T3, checkpoint kinase 2, transcript variant 3 (human)
T3 construct: HuProt array protein, full-length recombinant from yeast; also called CHEK2
T3 chain: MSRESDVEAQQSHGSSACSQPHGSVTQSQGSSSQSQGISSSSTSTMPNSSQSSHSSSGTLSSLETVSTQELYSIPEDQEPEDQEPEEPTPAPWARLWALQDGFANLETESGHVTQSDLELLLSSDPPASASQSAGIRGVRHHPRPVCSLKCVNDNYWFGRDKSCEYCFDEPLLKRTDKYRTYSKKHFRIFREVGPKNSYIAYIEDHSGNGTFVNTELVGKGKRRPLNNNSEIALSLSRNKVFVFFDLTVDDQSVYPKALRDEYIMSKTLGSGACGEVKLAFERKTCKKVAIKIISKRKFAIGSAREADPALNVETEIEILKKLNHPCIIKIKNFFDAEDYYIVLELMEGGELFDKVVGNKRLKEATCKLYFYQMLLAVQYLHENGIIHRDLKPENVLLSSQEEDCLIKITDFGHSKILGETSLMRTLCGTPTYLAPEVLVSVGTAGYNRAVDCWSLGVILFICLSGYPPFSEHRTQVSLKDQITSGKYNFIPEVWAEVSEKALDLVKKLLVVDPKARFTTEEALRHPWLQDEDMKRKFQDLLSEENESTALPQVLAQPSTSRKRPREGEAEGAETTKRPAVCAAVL

[4] = target: T4, S100 calcium binding protein B (human, UniProt P04271 2-92)
T4 construct: HuProt array protein, full-length recombinant from yeast; also called S100B
T4 sequence: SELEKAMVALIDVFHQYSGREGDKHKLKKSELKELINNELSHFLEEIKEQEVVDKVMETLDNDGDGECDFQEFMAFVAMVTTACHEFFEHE

[5] = target: aldo-keto reductase family 1 member B, transcript variant 1 (human, UniProt P15121 2-316)
[6] = target: T5, aarF domain containing kinase 5 (human, UniProt Q3MIX3 1-580)
T5 construct: HuProt array protein, full-length recombinant from yeast; also called ADCK5
T5 sequence (Q3MIX3 other isoform, or with tags, fused parts or gaps limits assumed): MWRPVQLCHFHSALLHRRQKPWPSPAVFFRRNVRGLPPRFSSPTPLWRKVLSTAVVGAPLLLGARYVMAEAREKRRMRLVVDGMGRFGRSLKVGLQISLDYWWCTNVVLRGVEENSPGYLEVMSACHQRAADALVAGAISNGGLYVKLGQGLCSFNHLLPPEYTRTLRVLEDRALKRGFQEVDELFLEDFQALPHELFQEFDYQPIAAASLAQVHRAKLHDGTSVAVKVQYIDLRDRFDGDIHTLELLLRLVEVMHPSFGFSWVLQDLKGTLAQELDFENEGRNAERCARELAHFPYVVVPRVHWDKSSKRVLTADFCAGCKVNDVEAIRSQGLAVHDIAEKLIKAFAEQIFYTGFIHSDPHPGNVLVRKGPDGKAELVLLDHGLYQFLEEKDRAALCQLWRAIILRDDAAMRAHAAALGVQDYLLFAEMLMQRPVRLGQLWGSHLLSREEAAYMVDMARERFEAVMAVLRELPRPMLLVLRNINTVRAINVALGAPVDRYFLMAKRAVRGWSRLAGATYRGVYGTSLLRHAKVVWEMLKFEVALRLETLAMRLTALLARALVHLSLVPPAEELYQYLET

[7] = target: T6, CDP-diacylglycerol synthase 1 (human, UniProt Q92903 1-461)
T6 construct: HuProt array protein, full-length recombinant from yeast; also called CDS1
T6 sequence: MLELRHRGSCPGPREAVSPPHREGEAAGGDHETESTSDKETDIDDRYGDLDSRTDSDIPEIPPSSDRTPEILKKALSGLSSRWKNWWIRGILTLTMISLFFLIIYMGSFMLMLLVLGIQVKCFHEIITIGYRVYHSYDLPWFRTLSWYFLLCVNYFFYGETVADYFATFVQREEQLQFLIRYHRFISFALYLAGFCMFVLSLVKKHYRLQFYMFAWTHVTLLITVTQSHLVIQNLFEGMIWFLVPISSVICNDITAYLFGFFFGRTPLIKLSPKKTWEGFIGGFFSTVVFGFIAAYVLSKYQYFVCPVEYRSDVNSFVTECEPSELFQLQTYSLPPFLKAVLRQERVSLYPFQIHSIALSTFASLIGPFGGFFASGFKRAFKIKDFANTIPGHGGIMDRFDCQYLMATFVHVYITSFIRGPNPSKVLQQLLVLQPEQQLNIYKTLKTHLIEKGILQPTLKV

[8] = target: T7, dynein axonemal assembly factor 3, transcript variant 3 (human, UniProt Q8N9W5 1-541)
T7 construct: HuProt array protein, full-length recombinant from yeast; also called DNAAF3
T7 sequence: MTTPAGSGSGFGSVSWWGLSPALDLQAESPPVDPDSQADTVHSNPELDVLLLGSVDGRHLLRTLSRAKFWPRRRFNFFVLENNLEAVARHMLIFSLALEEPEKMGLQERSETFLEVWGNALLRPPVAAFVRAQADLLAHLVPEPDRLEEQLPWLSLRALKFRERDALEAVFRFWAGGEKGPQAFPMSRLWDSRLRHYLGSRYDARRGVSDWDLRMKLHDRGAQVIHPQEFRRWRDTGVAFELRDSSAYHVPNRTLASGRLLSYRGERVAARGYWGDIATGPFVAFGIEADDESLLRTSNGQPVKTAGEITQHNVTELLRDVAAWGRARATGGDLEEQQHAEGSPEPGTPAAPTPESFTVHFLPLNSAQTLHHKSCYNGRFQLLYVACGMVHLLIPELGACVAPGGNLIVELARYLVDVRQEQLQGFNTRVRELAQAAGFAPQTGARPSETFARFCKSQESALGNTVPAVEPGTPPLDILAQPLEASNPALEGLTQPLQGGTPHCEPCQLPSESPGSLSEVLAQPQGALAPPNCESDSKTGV

binding result [4]: binds
B4: TKIC1012 (antibody, V domains shown)
VH: VVQLVESGGGLVQPGGSLRLSCAASGFSFSTYWMSWVRQAPGKGLEWVANIKQDGSEKHYVDSVKGRFTISRDNAKNSLYLQMNSLRAEDTAMYYCARRAYSFDYWGQGTLVTVSS
VL: DIQMTQSPSTLSASVGDKVTITCRASQSVGSWLAWYQQKPGKAPKLLISVASSLESGVPSRFSGSGSGTEFTLTVSSLQPDDFATYYCQQYNSYSWTFGQGTKVELKR
notes: detected with anti-human IgG Fc

binding result [5]: binds
B5: TKIC1006 (antibody, V domains shown)
VH: QVQLVQSGAEVKKPGSSVKVSCKTSGGTFSSYTISWVRQAPGQGPEWMGRIIPILNITNYAQKFQGRVTITADKSTSTTYMEMGSLRSEDTAVYFCARSFYGSGLQWGQGTLVTVSS
VL: EIVLTQSPGTLSLSPGERATLSCRASQSVSSSYLVWYQQKAGQAPRLLIYGASSRATGISDRFSGSGSGTDFTLTISRLEPEDFAVYYCQHFRSSPPTYTFGQGTKLEIKR
notes: as for B4

binding result [6]: binds
B6: TKIC1002 (antibody, V domains shown)
VH: PVQLQESGPGLVKPSETLSLTCTVSGGSISSYYWSWIRQPPGKGLEWIGYLFYSGSTNYNPSLKSRVTISVDTSKNQFSLKLGSVTAADTAVYYCARHRIFGLDVWGQGTTVTVSS
VL: EIVLTQSPGTLSLSLGERATLSCRASQSVSGSHLAWYQQKPGQAPRLLIYDASSRATGIPDRFSGSGSGTEFTLTISRLEPEDFAVYYCQQYGSSPLWFGQGTKVEIK
notes: as for B4

binding result [7]: binds | binding result [8]: binds
B7: THNS1014 (antibody, V domains shown)
VH: HVQLLQSGPGLVKPSQTLSLTCAISGDSVSSTSGAWNWIRQSPSRGLEWLGRTYYRSQWMNDYAESVRSRITINPDTSKNQFSLQLKSVTPEDTAVYYCTRGWAFTSSDWGQGTQVTVSS
VL: EIVLTQSPGTLSLSPGERATLSCRASQSFDGKSLAWYQQKPGQTPRLLVYGASSRATGIPDRFGGSGSGTDFTLTISRLESEDFAVYFCQQYAYVPITFGQGTRLERKR
notes: as for B4

The remaining lines, values behind:

B1: TKIC1019 (antibody, V domains shown)
VH: QLQLQESGPGLVKPSETLSLTCTVSDVSIISSFYYWGWIRQPPGKGLEWIGSVYYSGSTSYNPSLKSRVTISADTSKAHFSLNLRSVTAADTAVYYCVSRGPLGGAAAGPDYWGQGALVIVSS
VL: VSSELTQDPAVSVALGQTVRITCQGDSLRSYYATWYQQKPGQAPLLVIFDKDKRPSGIPDRFSGSSSGNTASLTITGAQPEDEAVYYCNSRDSSAHDHLLFGGGTTLTVLG
notes: as for B4
binding result [1]: binds

B2: TKIC1007 (antibody, V domains shown)
VH: GVDLVESGGGLVKPGGSLRLSCAASGFSFSRYNINWVRQAPGKGLEWVSSISSTSNYIYYADSVKGRFTISRDNAKNSLYLQMNSLRAEDTAVYYCARAMGGYTYYLDDWGQGTLVTVSS
VL: QSALTQPASVSGSPGQSITISCTGTSSDVGLYNFVSWYQQHPGKAPKLMIFDVNNRPSGVSNRFSGSKSDNTASLTISGLQAEDEADYYCSSYSRTTTLVFGGGTKVTVLG
notes: as for B4
binding result [2]: binds

B3: TKIC1013 (antibody, V domains shown)
VH: EVQLVESGGGLVQPGGSLRLSCAASGFTFNNYWMHWVRQAPGKGLVWVSRISSDGSTTASADSVKGRFTISRDNAKNTLFLQMNSLRAEDTAVYYCAREGAPDDYGDSGTAFDIWGQGTTVTVSS
VL: DIQLTQSPSFLSASVGDRVTITCRASQDISSFLAWYQQKPGKAPDLLIYAASTLQSGVPSRFSGSGSGTEFTLTISSLQPEDFAAYYCQHLTSFPYTFGQGTKLEIKR
notes: as for B4
binding result [3]: binds
